Results: the supplement of paper PMC10567573

B1: SPATS1 (parent)
chain: YPEQSKGFHKAGSMLPPVNFSIVP
B2: FBXO3 (parent)
chain: HDPLWRRHCKKYWLISEEEKTQKN

Variants of: B1
Assay: protein stability index of a GFP-peptide fusion (GPS, HEK-293T) (PSI 1-6); higher = more stable
Conditions: c terminus: a fixed tail appended
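Note: lentivirally expressed fusions sorted by FACS into six bins by GFP to DsRed ratio, PSI derived from sequencing read proportions per bin multiplied by bin number.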

Protein stability index of substitutions, site by site:
Y1: E 3.8, C 2.95, I 2.77, G 3.26, L 2.66, D 3.82, M 2.97, H 3.18, K 3.38, A 3.35, F 2.03

Variants of: B2
Assay: as above
Conditions: c terminus: a fixed tail appended

Protein stability index: each site, then its substitutions
T21: E 3.31, S 3.03, Q 3.21, W 2.44, A 2.84, K 2.94, V 2.99, G 2.91, I 3.29, D 3.25, Y 2.74, C 3.39, L 2.76, N 2.95, M 2.63, H 2.86, R 2.83, F 2.64, P 3.32
C9: D 4.83, S 3.27, T 3.7, A 3.57, W 3.16, Q 3.9, L 2.93, M 2.55, I 3.58, K 3.59, E 4.37, N 4.14, F 2.65, G 4.08, H 3.42, R 3.68, P 4.15, Y 3.31, V 3.8
K11: V 2.28, F 2.4, A 3.6, S 2.79, H 3.26, P 2.67, Q 3.45, M 2.44, D 3.12, R 3.35, N 2.65, W 2.41, C 2.63, G 2.7, L 1.93, E 3.59, Y 2.31, I 2.27, T 2.71
W13: Q 4.28, I 3.91, R 3.46, E 4.52, G 4.26, L 3.84, P 4.21, Y 3.19, H 4.21, C 3.67, T 4.22, A 4.04, V 3.85, M 3.76, D 4.38, K 4.65, F 3.85, S 3.97, N 4.37
K23: W 2.7, I 2.93, M 3.19, E 3.8, D 3.95, Q 3.27, C 3.09, A 3.34, F 2.85, N 3.05, L 2.94, V 3.6, P 3.11, S 3.38, T 3.31, R 3.16, Y 2.91, H 3.24, G 3.65
K10: D 4.05, A 2.91, P 4.06, I 2.02, R 3.06, E 3.81, L 2.34, Y 2.52, W 2.95, F 2.77, Q 3.28, M 2.28, N 3.51, H 3.27, V 2.57, T 2.71, S 3.32, C 2.27, G 3.41
I15: F 3.38, Q 3.68, E 3.88, G 3.69, P 3.68, C 3.73, A 3.38, H 2.72, D 3.69, M 3.16, W 3.19, Y 3.21, K 3.47, R 4.68, T 3.61, V 3.85, S 3.62, N 3.67, L 3.44
E19: S 3.05, N 2.88, G 3.05, P 2.98, K 2.92, M 2.66, R 2.94, L 2.35, I 2.38, T 2.71, D 3.17, V 2.67, H 2.91, W 1.9, C 2.84, F 2.04, Y 2.54, Q 3.26, A 2.83
S16: F 2.46, M 2.99, V 2.73, R 3.27, K 3.21, C 2.99, T 3.51, Q 2.99, L 2.72, E 3.8, A 3.21, P 3.77, I 2.4, H 3.09, Y 2.72, G 2.95, D 3.84, N 3.5, W 2.52
H8: A 2.63, C 2.03, I 1.63, S 2.73, L 1.88, T 2.79, N 3.15, Q 3.72, W 1.88, M 2.23, E 3.63, V 2.56, P 3.4, F 1.73, D 4.29, K 2.89, G 3.31, Y 2.2, R 3
K20: S 3.2, N 3.24, Q 3.66, V 3.29, T 2.89, I 2.58, W 2.33, A 2.85, G 3.51, R 3.38, F 2.6, L 2.88, C 2.9, Y 2.71, H 2.95, E 3.64, M 3.03, D 3.35, P 2.91
E18: K 3.04, H 3.3, F 2.55, M 2.28, C 2.95, N 3.15, S 3.01, T 2.89, Y 2.31, G 2.75, R 2.81, V 2.5, W 2.38, P 2.91, D 3.2, L 2.46, A 2.55, I 2.46, Q 2.94
Y12: S 3.91, V 3.83, M 2.98, F 3.22, G 3.74, K 3.89, C 3.4, R 3.59, E 4.48, I 3.48, D 4.63, N 3.58, W 3.12, T 4.13, L 3.74, Q 3.61, A 3.44, P 3.78, H 3.72
E17: D 3.48, Y 2.62, I 2.31, T 3.1, S 3.26, A 3.41, K 3.31, W 2.37, L 2.47, V 2.23, G 3, P 3.52, C 2.64, R 3, F 2.56, N 2.98, H 3.05, Q 2.98, M 2.22
L14: W 3.31, C 3.3, D 3.98, Y 3.56, A 3.57, F 3, S 3.88, N 4.4, T 3.65, G 3.79, K 3.53, M 3.27, I 2.99, E 3.77, R 3.3, V 3.27, P 4.11, Q 3.58, H 3.49
N24: G 2.61, K 2.79, R 3.22, Q 3.43, A 2.9, Y 2.44, S 2.91, M 3.4, P 3.87, L 2.81, D 3.68, T 3.47, V 3.02, E 3.12, C 2.73, W 2.47, I 2.48, H 2.99, F 2.47
Q22: A 3.29, T 3.42, R 2.95, W 2.05, E 3.42, P 3, G 3.18, V 3.44, H 2.99, C 2.79, D 3.35, M 3.01, K 2.89, F 2.56, L 2.57, S 2.97, N 3.19, I 2.49, Y 2.58
